Assay results taken from patent US20150056630A1, “DNA CONTROLLING MIR-140 EXPRESSION, AND SCREENING METHOD OF DRUGS USING SAID DNA” (NATIONAL CENTER FOR CHILD HEALTH AND DEVELOPMENT, priority 2012, published 2015).
Positions count from the first letter of the chain named.

How the values were obtained:
[1] = target: T1, Sox9 (recombinant, rSox9) (UniProt Q04887 Q04887:1-507); assay: EMSA; both sides mutated; shift disappeared; conditions: label: 32P
Procedure: (§1) To a reaction solution containing 20 mmol/L of HEPES (pH 7.9), 10% of glycerol, 50 mmol/L of KCl, 0.05% of NP-40, 0.5 mmol/L of EDTA, 0.5 mmol/L of DTT, 1 mmol/L of PMSF and 0.25 μg of Poly dG-dC was/were appropriately added 0.1 μg of a recombinant Sox9 (rSox9) and/or an anti-Sox9 antibody (manufactured by Millipore Corporation) followed by incubating at room temperature for 30 minutes. After that, the above RI-labeled probe was added, incubated at room temperature for 30 minutes and subjected to 4% polyacrylamide gel electrophoresis. After the electrophoresis, RI was detected using FLA-7000 (manufactured by Fujifilm) which is an image analysis apparatus.

recombinant Sox9 (rSox9) = target: T2, recombinant Sox9 (rSox9) (Homo sapiens, UniProt P48436); assay: Electrophoretic mobility shift assay (EMSA), Sox9 binding of RI-labeled probes; conditions: for shift of the band: incubation with rSox9
T2 sequence (P48436 1-509): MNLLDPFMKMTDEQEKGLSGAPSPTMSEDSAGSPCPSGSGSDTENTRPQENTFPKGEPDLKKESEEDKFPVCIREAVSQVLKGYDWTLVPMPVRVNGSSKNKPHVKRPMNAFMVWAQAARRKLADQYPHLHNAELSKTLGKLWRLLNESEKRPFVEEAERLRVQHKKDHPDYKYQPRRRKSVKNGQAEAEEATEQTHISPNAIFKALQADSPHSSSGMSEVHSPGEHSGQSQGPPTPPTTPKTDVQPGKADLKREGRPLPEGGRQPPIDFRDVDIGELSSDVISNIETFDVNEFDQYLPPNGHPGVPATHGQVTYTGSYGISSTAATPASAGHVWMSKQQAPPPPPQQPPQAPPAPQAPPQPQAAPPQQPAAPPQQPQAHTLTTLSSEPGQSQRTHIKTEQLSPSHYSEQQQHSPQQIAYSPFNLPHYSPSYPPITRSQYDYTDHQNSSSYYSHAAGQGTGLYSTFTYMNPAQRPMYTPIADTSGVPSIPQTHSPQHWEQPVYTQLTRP
Procedure: To a reaction solution comprising 1× Protruding End Kinase buffer, 0.4 μmol/L of sense oligo or antisense oligo and 1 U of T4 Polynucleotide Kinase (manufactured by Toyobo Co., Ltd.) was added P^32 γATP followed by subjecting to a reaction at 37° C. for 1 hour. The sense oligo and the antisense oligo finishing each of their reactions were mixed, incubated at 99° C. for 10 seconds and gradually returned to room temperature during 1 hour to prepare a double-stranded DNA labeled with radioisotope (RI). The RI-labeled probe was used after purifying by PrbeQuant G-50 Micro Column.
as §1

[2] = target: T1, Sox9 (recombinant, rSox9); assay: EMSA; 0.1 ug rSox9, poly dG-dC, 50 mM KCl, room temperature; supershift with anti-Sox9; conditions: label: 32P
Procedure: as §1

[3] = target: T1, Sox9 (recombinant, rSox9); assay: EMSA; left-side half-site mutated; shift still observed; conditions: label: 32P
Procedure: as §1

[4] = target: T1, Sox9 (recombinant, rSox9); assay: EMSA; right-side half-site mutated; shift disappeared; conditions: label: 32P
Procedure: as §1

B1: miR140-PSB-mut3 probe (dsDNA)
DNA 1: CTGGGTTGGGCCCCAGGCATCGTCCTGCTGCT
DNA 2: AGCAGCAGGACGATGCCTGGGGCCCAACCCAG
binding result [1]: no binding

B2: miR-140-PSB-mut3: RI-labeled probe, SEQ ID Nos. 34/35, mutation in both sides of the palindromic Sox9 binding sequence (nucleic acid)
chain 1: B1 DNA 1
chain 2: B1 DNA 2
modifications: DNA, backbone and methylation of C not given here; radioisotope-labeled double-stranded DNA probe, further chemistry not fully specified
shift of the band (recombinant Sox9 (rSox9)): shift of the band disappeared

B3: miR140-PSB probe (dsDNA)
DNA 1: CTGGACTGAGCCCCATTCATCGTCCTGCTGCT
DNA 2: AGCAGCAGGACGATGAATGGGGCTCAGTCCAG
binding result [2]: binds

B4: miR140-PSB-mut2 probe (dsDNA)
DNA 1: B1 DNA 1 with G16T, G17T
DNA 2: B1 DNA 2 with C16A, C17A
binding result [3]: binds

B5: miR140-PSB-mut1 probe (dsDNA)
DNA 1: B3 DNA 1 with T16G, T17G
DNA 2: B3 DNA 2 with A16C, A17C
binding result [4]: no binding

B6: miR-140-PSB: RI-labeled double-stranded DNA probe, SEQ ID Nos. 28/29, palindromic Sox9 binding sequence (Table 3: miR140-PSB) (nucleic acid)
chain 1: B3 DNA 1
chain 2: B3 DNA 2
modifications: DNA, backbone and methylation of C not given here; radioisotope-labeled double-stranded DNA probe, further chemistry not fully specified
shift of the band (recombinant Sox9 (rSox9)): shift of the band was observed | supershift of the band (recombinant Sox9 (rSox9); rSox9 and further incubation with anti-Sox9 antibody): supershift of the band was observed

B7: miR-140-PSB-mut2: RI-labeled probe, SEQ ID Nos. 32/33, mutation in the left side of the palindromic Sox9 binding sequence (nucleic acid)
chain 1: B1 DNA 1 with G16T, G17T
chain 2: B1 DNA 2 with C16A, C17A
modifications: DNA, backbone and methylation of C not given here; radioisotope-labeled double-stranded DNA probe, further chemistry not fully specified
shift of the band (recombinant Sox9 (rSox9)): shift of the band was observed

B8: miR-140-PSB-mut1: RI-labeled probe, SEQ ID Nos. 30/31, mutation in the right side of the palindromic Sox9 binding sequence (nucleic acid)
chain 1: B3 DNA 1 with T16G, T17G
chain 2: B3 DNA 2 with A16C, A17C
modifications: DNA, backbone and methylation of C not given here; radioisotope-labeled double-stranded DNA probe, further chemistry not fully specified
shift of the band (recombinant Sox9 (rSox9)): shift of the band disappeared
